{"source": "paper PMC5849677", "about": "(2018)", "binders": {"B1": {"name": "hCR2 (SCR1-4)-Fc (Fc fusion)", "chain": "ISCGSPPPILNGRISYYSTPIAVGTVIRYSCSGTFRLIGEKSLLCITKDKVDGTWDKPAPKCEYFNKYSSCPEPIVPGGYKIRGSTPYRHGDSVTFACKTNFSMNGNKSVWCQANNMWGPTRLPTCVSVFPLECPALPMIHNGHHTSENVGSIAPGLSVTYSCESGYLLVGEKIINCLSSGKWSAVPPTCEEARCKSLGRFPNGKVKEPPILRVGVTANFFCDEGYRLQGPPSSRCVIAGQGVAWTKMPVCEE"}}, "assay_in_all_cases": "SPR", "key": {"hC3dg (aa 955-1303)-Fc": {"biological_target": "hC3dg (aa 955-1303)-Fc (human, UniProt P01024 955-1303)", "sequence (P01024 955-1303)": "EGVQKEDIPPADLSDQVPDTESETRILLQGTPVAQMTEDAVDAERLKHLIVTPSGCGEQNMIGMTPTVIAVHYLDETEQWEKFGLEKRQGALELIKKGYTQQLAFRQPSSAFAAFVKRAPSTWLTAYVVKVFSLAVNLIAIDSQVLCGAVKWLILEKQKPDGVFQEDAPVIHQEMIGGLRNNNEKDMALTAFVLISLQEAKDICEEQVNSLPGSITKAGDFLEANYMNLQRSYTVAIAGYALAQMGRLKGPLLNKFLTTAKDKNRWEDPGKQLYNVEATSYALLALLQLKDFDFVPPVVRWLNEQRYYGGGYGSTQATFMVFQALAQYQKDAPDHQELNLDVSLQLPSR"}, "[1]": {"biological_target": "hC3d(s)-Fc (Cys to Ser variant of hC3d-Fc) (human, UniProt P01024 1001-1303)", "sequence (P01024 other isoform, or with tags, fused parts or gaps mutant)": "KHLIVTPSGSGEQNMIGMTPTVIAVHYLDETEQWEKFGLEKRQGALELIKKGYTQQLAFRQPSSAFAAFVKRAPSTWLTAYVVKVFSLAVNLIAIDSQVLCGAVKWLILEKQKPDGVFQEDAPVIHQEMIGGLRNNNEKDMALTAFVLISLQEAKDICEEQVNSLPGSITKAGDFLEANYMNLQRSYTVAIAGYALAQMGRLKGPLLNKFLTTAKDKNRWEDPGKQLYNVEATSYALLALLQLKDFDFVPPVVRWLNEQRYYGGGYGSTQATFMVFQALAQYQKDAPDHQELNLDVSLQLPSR"}, "[2]": {"biological_target": "native hC3d (containing 9th cysteine)-Fc (human, UniProt P01024 1001-1303)", "sequence (P01024 1001-1303)": "as the sequence (P01024 other isoform, or with tags, fused parts or gaps mutant) above, with S10C counted along it"}}, "data": [{"binder": "B1", "values": [{"measurement": "Kd", "setting": "hC3dg (aa 955-1303)-Fc", "result": 3.17, "unit": "nM"}, {"measurement": "Kd", "setting": "[1]", "result": 7.66, "unit": "nM"}, {"measurement": "Kd", "setting": "[2]", "result": 5.18, "unit": "nM"}]}]}
